Results on 10 molecules are retold here after US20150239950A1 (SALK INSTITUTE FOR BIOLOGICAL STUDIES, published 2015).

Sequences and labels used below:
B1: BMPRIa-ECD (extracellular domain of human BMPRIa, residues 1-129) (receptor, UniProt P36894 24-152, looked up)
chain: QNLDSMLHGTGMKSDSDQKKSENGVTLAPEDTLPFLKCYCSGHCPDDAINNTCITNGHCFAIIEEDDQGETTLASGCMKYEGSDFQCKDSPKAQLRRTIECCRTNLCNQYLQPTLPPVVIGPFFDGSIR
notes: extracellular domain; also called type I receptor ECD
B2: ActRIIb-ECD (extracellular domain of mouse ActRIIb, residues 1-98) (receptor, UniProt P27040 19-137, looked up)
chain: SGRGEAETRECIYYNANWELERTNQSGLERCEGEQDKRLHCYASWRNSSGTIELVKKGCWLDDFNCYDRQECVATEENPQVYFCCCEGNFCNERFTHLPEPGGPEVTYEPPPTAPTLLT
notes: extracellular domain; also called type II receptor ECD
B9: BMP2/BMP6 heterodimer (ligand)
chain 1: QAKHKQRKRLKSSCKRHPLYVDFSDVGWNDWIVAPPGYHAFYCHGECPFPLADHLNSTNHAIVQTLVNSVNSKIPKACCVPTELSAISMLYLDENEKVVLKNYQDMVVEGCGCR
chain 2: MQQSRNRSTQSQDVARVSSASDYNSSELKTACRKHELYVSFQDLGWQDWIIAPKGYAANYCDGECSFPLNAHMNATNHAIVQTLVHLMNPEYVPKPCCAPTKLNAISVLYFDDNSNVILKKYRNMVVRACGCH
notes: also called B2/B6

Like-named read-outs stand apart in the source and are kept apart here.

For assay [1], the target named is T1, BMP6 homodimer (mature domain of human BMP6, residues 1-132) (human, UniProt P22004 382-513).
T1 sequence: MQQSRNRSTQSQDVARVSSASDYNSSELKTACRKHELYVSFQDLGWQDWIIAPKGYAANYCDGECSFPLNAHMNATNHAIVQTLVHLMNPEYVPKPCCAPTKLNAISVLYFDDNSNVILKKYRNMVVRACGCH
In words: SPR, receptor binding affinity. (In general: SPR reads the build-up and loss of mass on a sensor chip optically.)

Assay [2] has as its target T1, BMP6 homodimer (mature domain of human …). In words: SPR (BIAcore), receptor ECD immobilized, ligand flowed; KD = koff/kon. How it is done: (§1) The affinity of the ligands to BMPRIa, ActRII, and ActRIIb was monitored by using a Biacore 3000 (GE Healthcare) and the data were analyzed by using BlAevaluation software ver. 4.1 (GE Healthcare). Using primary amine coupling, receptor ECDs were immobilized on a CM5 chip. The receptors were immobilized independently on flow cells 2-4 for 10 minutes at a flow rate of 5 μL/min and a concentration of 20 μM in 10 mM Na acetate, pH 4.0. Flow cell 1 was left blank, no immobilized protein, as a negative control. […] A minimum of five concentrations, plus a zero concentration, were run per sample for kinetic analysis and the data were fit by using a global 1:1 Langmuir binding with mass transfer.
(§2) Ligand affinity data from BIAcore experiments. The BIAcore data is shown as the dissociation rate, koff, and the association rate, kₒₙ, based on a global fit using the kinetic model 1:1 Langmuir binding with mass transfer. The binding constant KD is calculated as koff/kₒₙ. The receptors were immobilized to the chip surface, with the ligands flowed over the surface.

The target in assay [3] is B9. The assay is described as follows: SPR, receptor binding affinity.
Assay [4] has as its target B9. The assay is described as follows: SPR (BIAcore), receptor ECD immobilized, ligand flowed; KD = koff/kon. How it is done:
as §1, §2

For assay [5], the target named is T1, BMP6 homodimer (mature domain of human …). In words: SPR (BIAcore), receptor ECD immobilized, ligand flowed; 1:1 Langmuir with mass transfer. How it is done: as §1, §2
Assay [6] concerns the target T2, ActRII-ECD (extracellular domain of mouse ActRII, residues 1-102) (mouse, UniProt P27038 20-135).
T2 construct: extracellular domain; also called type II receptor ECD
The assay is described as follows: SPR (BIAcore), receptor ECD immobilized, ligand flowed; 1:1 Langmuir with mass transfer; single trial. Here is the method:
(§3) The receptors were immobilized to the chip surface with the ligands flowed over the surface. The data were fit to a kinetic model (1:1 Langmuir binding with mass transfer) in which KD is calculated as koff/kₒₙ. The table reports data from a single trial.

Assay [7] has as its target T2, ActRII-ECD (extracellular domain of …). The assay is described as follows: SPR (BIAcore), receptor ECD immobilized, ligand flowed; KD = koff/kon; single trial. How it is done:
as §3

Assay [8] has as its target B1. The assay is described as follows: SPR (BIAcore), receptor ECD immobilized, ligand flowed; 'No Binding indicates that the interaction was not detectable'. Here is the method: as §3
Assay [9] concerns the target T2, ActRII-ECD (extracellular domain of …). In words: SPR (BIAcore), receptor ECD immobilized.
Assay [10] shares this target. In words: SPR (BIAcore), receptor ECD immobilized, ligand flowed; 1:1 Langmuir with mass transfer; single trial. How it is done:
as §3
The source holds these as a separate data set.

Assay [11] has the same target. The assay is described as follows: SPR (BIAcore), receptor ECD immobilized, ligand flowed; KD = koff/kon; single trial. How it is done:
as §3
This is another data set of the same source.

The target of assay [12] is Cripto (mouse Cripto construct transfected into HEK293T cells) (mouse) (UniProt P51865). In words: cell-based or functional assay.
Assay [13] has as its target T2, ActRII-ECD (extracellular domain of …). The assay is described as follows: native-PAGE receptor ECD saturation assay, 5 µg ActRII-ECD with 10 µg ligand, Coomassie densitometry.
For assay [14], the target named is B2. In words: SPR, receptor binding affinity.
In assay [15] the target is B2. In words: SPR (BIAcore), receptor ECD immobilized, ligand flowed; KD = koff/kon. How it is done:
as §1, §2

T2 sequence (P27038 20-135): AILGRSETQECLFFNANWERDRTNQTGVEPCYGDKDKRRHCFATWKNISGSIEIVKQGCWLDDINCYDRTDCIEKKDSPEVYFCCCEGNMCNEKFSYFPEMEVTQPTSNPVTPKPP
Cripto (mouse Cripto construct transfected into HEK293T cells) (mouse), sequence (P51865 18-134): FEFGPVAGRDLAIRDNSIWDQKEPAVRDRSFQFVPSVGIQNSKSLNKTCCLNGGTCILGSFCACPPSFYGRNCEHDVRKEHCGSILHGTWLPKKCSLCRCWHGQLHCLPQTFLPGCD

Broadly, the Kd is the free concentration of one partner at which half of the binding sites on the other are occupied at equilibrium, for simple one-to-one binding. Low readings indicate tighter binding, high ones weaker binding. Take B1: the Kd in assay [1] and in [2] was 62.8 nM throughout.
A word on the koff: it is the rate constant with which the complex falls apart. A low value points to a long-lived complex. As a reminder, the kon is the rate constant with which the complex forms. Low readings indicate slower complex formation, high ones faster complex formation. For B2, the Kd came out at 6.52 nM in [3], 6.68 nM in [1], 6.52 nM in assay [4] and 6.68 nM in assay [2]. Besides, the koff in [3] amounted to 0.00861 s⁻¹; in assay [1], 0.00182 s⁻¹; in assay [5] it was 0.00182 s⁻¹. The kon in assay [3] is 1.32e+06 M⁻¹ s⁻¹; in [1], 273000 M⁻¹ s⁻¹; in assay [5], 273000 M⁻¹ s⁻¹.

B3: AB2-011 (1b2b3b4b5a6a activin/BMP-2 chimera) (ligand)
chain: MQAKHQQRKRLKSSCKRHPLYVDFSDVGWNDWIVAPPGYHAFYCHGECPFPLADHLNSTNHAIVQTLVNSVNSKIPKACCVPTKLRPSMLYYDDGQNIIKKDIQNMIVEECGCS
As to B3, in assay [6], the koff turned out to be 0.000339 s⁻¹ and the kon was determined as 646000 M⁻¹ s⁻¹. Further, binding in assay [7] was put at a Kd of 0.525 nM.

B4: AB2-015 (1b2a3b4b5b6a activin/BMP-2 chimera) (ligand)
chain: MQAKHKQRKRLKSSCKRHPLYVDFSDVGWNDWIIAPSGYHANYCDGECPFPLADHLNSTNHAIVQTLVNSVNSKIPKACCVPTELSAISMLYYDDGQNIIKKDIQNMIVEECGCS
Consider B4, for which, in assay [6], the koff was 0.000371 s⁻¹ and the kon turned out to be 1.61e+06 M⁻¹ s⁻¹. Besides, the binding result in assay [8] was “no binding”. For the same molecule, in assay [9], the “fold higher binding against BMP-2” value is approximately 100 fold. Further, in assay [7], the affinity, expressed as Kd, was 0.23 nM.

B5: AB2-012 (1b2b3b4b5b6a activin/BMP-2 chimera) (ligand)
chain: MQAKHKQRKRLKSSCKRHPLYVDFSDVGWNDWIVAPPGYHAFYCHGECPFPLADHLNSTNHAIVQTLVNSVNSKIPKACCVPTELSAISMLYYDDGRNIIKKDIQNMIVEECGCS
As to B5, in assay [6], the koff was 0.0016 s⁻¹ and the kon stood at 3.39e+06 M⁻¹ s⁻¹. This molecule also registered a Kd in assay [7] of 0.472 nM.

B6: AB2-004 (1b2a3b4b5a6a activin/BMP-2 chimera) (ligand)
chain: MQAKHKQRKRLKSSCKRHPLYVDFSDVGWNDWIIAPSGYHANYCDGECPFPLADHLNSTNHAIVQTLVNSVNSKIPKACCVPTKLRPMSMLYYDDGQNIIKKDIQNMIVEECGCS
For B6, in assay [6], the off-rate constant (koff) is 0.000187 s⁻¹ and the kon was found to be 491000 M⁻¹ s⁻¹. Binding in assay [7] was put at a Kd of 0.381 nM.

B7: AB2-008 (1b2a3a4a5a6a activin/BMP-2 chimera) (ligand)
chain: MQAKHKQRKRLKSSCKRHPLYVDFSDVGWNDWIIAPSGYHANYCEGECPSHIAGTSGSSLSFHSTLVNHYRMRGHSPFANLKSCCVPTKLRPMSMLYYDDGQNIIKKDIQNMIVEECGCS
notes: The entry includes the initiator Met
Turning to B7, in [10], the koff turned out to be 0.000824 s⁻¹ and the kon is 2.39e+06 M⁻¹ s⁻¹. Binding in assay [11] was put at a Kd of 0.344 nM. Further, the binding result in [8] is given as “no binding”. The “fold weaker affinity against activin-βA” value in assay [9] is approximately 1.7 fold.

B8: Activin-βA (ligand)
chain: GLECDGKVNICCKKQFFVSFKDIGWNDWIIAPSGYHANYCEGECPSHIAGTSGSSLSFHSTVINHYRMRGHSPFANLKSCCVPTKLRPMSMLYYDDGQNIIKKDIQNMIVEECGCS
notes: also called Activin-A
Regarding B8, the koff in assay [6] and in [10] was 0.000716 s⁻¹ throughout. Also, the kon in assay [6] and in assay [10] was 3.52e+06 M⁻¹ s⁻¹ throughout. Besides, the Kd in assay [11] and in assay [7] was 0.203 nM each time. Besides, in assay [8], the binding result is “no binding”. Moreover, the decrease in Smad-2/3 luciferase signaling in HEK293T cells in the presence of Cripto in [12] worked out at 43%.
With B9, the “fold decrease of the free type II receptor ECD band intensity against receptor ECD alone” value in assay [13] came out at 9 fold.

B10: BMP2 homodimer (mature domain of human BMP2) (ligand)
chain: QAKHKQRKRLKSSCKRHPLYVDFSDVGWNDWIVAPPGYHAFYCHGECPFPLADHLNSTNHAIVQTLVNSVNSKIPKACCVPTELSAISMLYLDENEKVVLKNYQDMVVEGCGCR
notes: also called BMP-2wt; BMP-2ma
On to B10, for which the Kd in assay [14] worked out at 38.5 nM; in assay [15], 38.5 nM; in assay [7] it was 36.8 nM.
